This series in a line: total protein half-life in vivo (active degradation + dilution); higher = more stable protein.
Where [1] appears, read: E. coli NCM3722 delta-clpP delta-lon delta-hslV, growth: N-lim chemostat, doubling time 6 h.
The mark [2] stands for this setting: E. coli NCM3722 delta-smpB, growth: N-lim chemostat, doubling time 6 h.
Setting [3] is: wild type E. coli NCM3722, growth: C-lim chemostat, doubling time 3 h.
The mark [4] stands for this setting: wild type E. coli NCM3722, growth: P-lim chemostat, doubling time 12 h.
[5] abbreviates: E. coli NCM3722 delta-clpP, growth: N-lim chemostat, doubling time 6 h.
Where [6] appears, read: E. coli NCM3722 delta-hslV, growth: N-lim chemostat, doubling time 6 h.
[7] abbreviates: E. coli NCM3722 delta-lon, growth: N-lim chemostat, doubling time 6 h.
Where [8] appears, read: wild type E. coli NCM3722, growth: C-lim chemostat, doubling time 6 h.
The mark [9] stands for this setting: wild type E. coli NCM3722, growth: C-lim chemostat, doubling time 12 h.
Where [10] appears, read: wild type E. coli NCM3722, growth: N-lim chemostat, doubling time 6 h.
Where [11] appears, read: wild type E. coli NCM3722, growth: N-lim chemostat, doubling time 12 h.
The mark [12] stands for this setting: wild type E. coli NCM3722, growth: P-lim chemostat, doubling time 6 h.

Consider nine sequences from the supplement of paper PMC11246515.

± gives the standard deviation of the averaged measurements. Where only a bound is given, the exact number is not on record here.

On to “MEKRTPHTRLSQVKKLVNAGQVRTTRSALLNADELGLDFDGMCNVIIGLSESDFYKSMTTYSDHTIWQDVYRPRLVTGQVYLKITVIHDVLIVSFKEK”, for which the “total protein half-life in vivo” value is, setting by setting: under setting [1], 5.29 h; under setting [2], 5 h; under setting [3], 3.12 h; under setting [4], 13.2 ± 0.69 h.

With “MSQVSTEFIPTRIAILTVSNRRGEEDDTSGHYLRDSAQEAGHHVVDKAIVKENRYAIRAQVSAWIASDDVQVVLITGGTGLTEGDQAPEALLPLFDREVEGFGEVFRMLSFEEIGTSTLQSRAVAGVANKTLIFAMPGSTKACRTAWENIIAPQLDARTRPCNFHPHLKK [P0AEZ9]”, the “total protein half-life in vivo” value by setting is: under setting [1], 5.88 ± 0.086 h; under setting [5], 5.83 ± 0.34 h; under setting [6], 5.23 ± 0.43 h; under setting [7], 5.076 ± 0.019 h; under setting [2], 4.7 ± 0.21 h; under setting [3], 3.17 ± 0.28 h. Further, the “total protein half-life in vivo” value is, setting by setting: under setting [8], 5.99 ± 0.53 h; under setting [9], 10.3 ± 1.4 h; under setting [10], 4.7 ± 0.53 h; under setting [11], 8.21 ± 0.61 h; under setting [12], 6.07 ± 0.18 h; under setting [4], 13.4 ± 0.48 h.

Turning to “MTFSLFGDKFTRHSGITLLMEDLNDGLRTPGAIMLGGGNPAQIPEMQDYFQTLLTDMLESGKATDALCNYDGPQGKTELLTLLAGMLREKLGWDIEPQNIALTNGSQSAFFYLFNLFAGRRADGRVKKVLFPLAPEYIGYADAGLEEDLFVSARPNIELLPEGQFKYHVDFEHLHIGEETGMICVSRPTNPTGNVITDEELLKLDALANQHGIPLVIDNAYGVPFPGIIFSEARPLWNPNIVLCMSLSKLGLPGSRCGIIIANEKIITAITNMNGIISLAPGGIGPAMMCEMIKRNDLLRLSETVIKPFYYQRVQETIAIIRRYLPENRCLIHKPEGAIFLWLWFKDLPITTKQLYQRLKARGVLMVPGHNFFPGLDKPWPHTHQCMRMNYVPEPEKIEAGVKILAEEIERAWAESH”, the “total protein half-life in vivo” value by setting is: under setting [1], 3.05 ± 0.33 h; under setting [5], 2.32 ± 0.096 h; under setting [6], 2.53 ± 0.12 h; under setting [7], 2.72 ± 0.059 h; under setting [2], 2.76 ± 0.11 h; under setting [8], 4.26 ± 0.073 h. The “total protein half-life in vivo” value by setting is: under setting [9], 7.25 ± 0.17 h; under setting [10], 2.46 ± 0.28 h; under setting [11], 3.33 ± 0.17 h; under setting [12], 4.994 ± 0.0076 h; under setting [4], 9.24 ± 0.47 h.

In the case of “MLAFIRFLFAGLLLVISHAFAATVQDEHGTFTLEKTPQRIVVLELSFADALAAVDVIPIGIADDNDAKRILPEVRAHLKPWQSVGTRAQPSLEAIAALKPDLIIADSSRHAGVYIALQQIAPVLLLKSRNETYAENLQSAAIIGEMVGKKREMQARLEQHKERMAQWASQLPKGTRVAFGTSREQQFNLHTQETWTGSVLASLGLNVPAAMAGASMPSIGLEQLLAVNPAWLLVAHYREESIVKRWQQDPLWQMLTAAQKQQVASVDSNTWARMRGIFAAERIAADTVKIFHHQPLTVVK”, the “total protein half-life in vivo” value reads like this: under setting [8], 5.67 h; under setting [9], 7.06 h.

For the sequence “MLIPSKLSRPVRLDHTVVRERLLAKLSGANNFRLALITSPAGYGKTTLISQWAAGKNDIGWYSLDEGDNQQERFASYLIAAVQQATNGHCAICETMAQKRQYASLTSLFAQLFIELAEWHSPLYLVIDDYHLITNPVIHESMRFFIRHQPENLTLVVLSRNLPQLGIANLRVRDQLLEIGSQQLAFTHQEAKQFFDCRLSSPIEAAESSRICDDVSGWATALQLIALSARQNTHSAHKSARRLAGINASHLSDYLVDEVLDNVDLATRHFLLKSAILRSMNDALITRVTGEENGQMRLEEIERQGLFLQRMDDTGEWFCYHPLFGNFLRQRCQWELAAELPEIHRAAAESWMAQGFPSEAIHHALAAGDALMLRDILLNHAWSLFNHSELSLLEESLKALPWDSLLENPQLVLLQAWLMQSQHRYGEVNTLLARAEHEIKDIREDTMHAEFNALRAQVAINDGNPDEAERLAKLALEELPPGWFYSRIVATSVLGEVLHCKGELTRSLALMQQTEQMARQHDVWHYALWSLIQQSEILFAQGFLQTAWETQEKAFQLINEQHLEQLPMHEFLVRIRAQLLWAWARLDEAEASARSGIEVLSSYQPQQQLQCLAMLIQCSLARGDLDNARSQLNRLENLLGNGKYHSDWISNANKVRVIYWQMTGDKAAAANWLRHTAKPEFANNHFLQGQWRNIARAQILLGEFEPAEIVLEELNENARSLRLMSDLNRNLLLLNQLYWQAGRKSDAQRVLLDALKLANRTGFISHFVIEGEAMAQQLRQLIQLNTLPELEQHRAQRILREINQHHRHKFAHFDENFVERLLNHPEVPELIRTSPLTQREWQVLGLIYSGYSNEQIAGELEVAATTIKTHIRNLYQKLGVAHRQDAVQHAQQLLKMMGYGV”, the “total protein half-life in vivo” value under setting [1] was found to be 6.02 ± 0.46 h; the “total protein half-life in vivo” value under setting [6] is 0.718 h; the “total protein half-life in vivo” value under setting [2] turned out to be 0.786 h; the “total protein half-life in vivo” value under setting [3] amounted to 0.61 ± 0.1 h; the “total protein half-life in vivo” value under setting [8] came out at 1.05 ± 0.094 h; the “total protein half-life in vivo” value under setting [9] is 1.38 ± 0.18 h. Moreover, the “total protein half-life in vivo” value turned out to be 0.803 h under setting [11] and 1.36 h under setting [4].

For the sequence “MNKLQSYFIASVLYVMTPHAFAQGTVTIYLPGEQQTLSVGPVENVVQLVTQPQLRDRLWWPGALLTDSAAKAKALKDYQHVMAQLASWEAEADDDVAATIKSVRQQLLNLNITGRLPVKLDPDFVRVDENSNPPLVGDYTLYTVQRPVTITLLGAVSGAGQLPWQAGRSVTDYLQDHPRLAGADKNNVMVITPEGETVVAPVALWNKRHVEPPPGSQLWLGFSAHVLPEKYADLNDQIVSVLTQRVPD”, under setting [11], the “total protein half-life in vivo” value came out at 7.71 h.

Regarding “MSKKIVLALGGNALGDDLAGQMKAVKITSQAIVDLIAQGHEVIVTHGNGPQVGMINQAFEAAAKTEAHSPMLPMSVCVALSQGYIGYDLQNALREELLSRGINKPVATLVTQVEVDANDPAFLNPTKPIGSFFTEQEAEQLTKQGYTLKEDAGRGYRRVVASPKPVDIIEKETVKALVDAGQVVITVGGGGIPVIREGNHLRGASAVIDKDWASARLAEMIDADMLIILTAVEKVAINFGKENEQWLDRLSLSDAERFIEEGHFAKGSMLPKVEAAASFARSRAGREALITVLSKAKEGIEGKTGTVICQ”, the “total protein half-life in vivo” value is 3.53 h under setting [1]; > 8 h under setting [6]; 2.48 h under setting [2]; 2.84 ± 0.39 h under setting [3]; 3.92 h under setting [8]; 6.22 ± 1.5 h under setting [9]. The “total protein half-life in vivo” value runs as follows: under setting [10], 2.66 h; under setting [12], 3.03 h; under setting [4], 5.27 ± 1.5 h.

Consider “MKILVIGPSWVGDMMMSQSLYRTLQARYPQAIIDVMAPAWCRPLLSRMPEVNEAIPMPLGHGALEIGERRKLGHSLREKRYDRAYVLPNSFKSALVPFFAGIPHRTGWRGEMRYGLLNDVRVLDKEAWPLMVERYIALAYDKGIMRTAQDLPQPLLWPQLQVSEGEKSYTCNQFSLSSERPMIGFCPGAEFGPAKRWPHYHYAELAKQLIDEGYQVVLFGSAKDHEAGNEILAALNTEQQAWCRNLAGETQLDQAVILIAACKAIVTNDSGLMHVAAALNRPLVALYGPSSPDFTPPLSHKARVIRLITGYHKVRKGDAAEGYHQSLIDITPQRVLEELNALLLQEEA”, for which the “total protein half-life in vivo” value by setting is: under setting [1], 6.06 ± 0.088 h; under setting [5], 6.69 ± 0.98 h; under setting [6], 5.71 ± 0.23 h; under setting [7], 5.22 ± 0.11 h; under setting [2], 6.11 ± 0.48 h; under setting [3], 3.24 ± 0.14 h. The “total protein half-life in vivo” value reads like this: under setting [8], 5.58 ± 0.14 h; under setting [9], 11.7 ± 2.8 h; under setting [10], 6.4 ± 0.97 h; under setting [11], 11.1 ± 1.8 h; under setting [12], 6.54 ± 0.24 h; under setting [4], 11.7 ± 1.7 h.

As for “MTTLLNPYFGEFGGMYVPQILMPALRQLEEAFVSAQKDPEFQAQFNDLLKNYAGRPTALTKCQNITAGTNTTLYLKREDLLHGGAHKTNQVLGQALLAKRMGKTEIIAETGAGQHGVASALASALLGLKCRIYMGAKDVERQSPNVFRMRLMGAEVIPVHSGSATLKDACNEALRDWSGSYETAHYMLGTAAGPHPYPTIVREFQRMIGEETKAQILEREGRLPDAVIACVGGGSNAIGMFADFINETNVGLIGVEPGGHGIETGEHGAPLKHGRVGIYFGMKAPMMQTEDGQIEESYSISAGLDFPSVGPQHAYLNSTGRADYVSITDDEALEAFKTLCLHEGIIPALESSHALAHALKMMRENPDKEQLLVVNLSGRGDKDIFTVHDILKARGEI [P0A879]”, the “total protein half-life in vivo” value is, setting by setting: under setting [1], 3.87 ± 0.32 h; under setting [5], 3.49 ± 0.14 h; under setting [6], 3.48 ± 0.17 h; under setting [7], 3.69 ± 0.27 h; under setting [2], 3.78 ± 0.36 h; under setting [3], 2.95 ± 0.1 h. The “total protein half-life in vivo” value under setting [8] stood at 5.28 ± 0.27 h; the “total protein half-life in vivo” value under setting [9] came out at 9.833 ± 0.072 h; the “total protein half-life in vivo” value under setting [10] stood at 3.54 ± 0.042 h; the “total protein half-life in vivo” value under setting [11] came out at 5.38 ± 0.17 h; the “total protein half-life in vivo” value under setting [12] worked out at 6.4 ± 1.5 h; the “total protein half-life in vivo” value under setting [4] was 11.5 ± 1.2 h.
